Experiments:
mini-HA #4900 = mini-HA #4900 (Designed influenza HA stem #4900, …, stabilised); assay: BLI; details: both partners purified
[1] = target: HA protein from H1N1 A/Solomon Islands/3/2006 (Influenza A virus (A/Solomon …, UniProt A7Y8I1, strain)); assay: BLI; details: both partners purified

B1: CR9114 with germline heavy chain, Fab (Fab, V domains shown)
VH: QVQLVQSGAEVKKPGSSVKVSCKASGGTFSSYAISWVRQAPGQGLEWMGGIIPIFGTANYAQKFQGRVTITADKSTSTAYMELSSLRSEDTAVYYCARHGNYYYYYGMDVWGQGTTVTVSS
VL: SYVLTQPPAVSGTPGQRVTISCSGSDSNIGRRSVNWYQQFPGTAPKLLIYSNDQRPSVVPDRFSGSKSGTSASLAISGLQSEDEAEYYCAAWDDSLKGAVFGGGTQLTVL
notes: also called CR9114 gHC; WT; source: Expi293F, co-transfected, purified (CaptureSelect CH1-XL)
Kd (mini-HA #4900): 6.2 µM

B2: CR9114 gHC Fab VL A96S (Fab, V domains shown)
VH: QVQLVQSGAEVKKPGSSVKVSCKASGGTFSSYAISWVRQAPGQGLEWMGGIIPIFGTANYAQKFQGRVTITADKSTSTAYMELSSLRSEDTAVYYCARHGNYYYYYGMDVWGQGTTVTVSS
VL: SYVLTQPPAVSGTPGQRVTISCSGSDSNIGRRSVNWYQQFPGTAPKLLIYSNDQRPSVVPDRFSGSKSGTSASLAISGLQSEDEAEYYCAAWDDSLKGSVFGGGTQLTVL
notes: Kabat numbering; source: Expi293F, co-transfected, purified (CaptureSelect CH1-XL)
Kd [1]: 1.6 µM | Kd (mini-HA #4900): 1.9 µM

B3: CR9114 gHC Fab VL A96R (Fab, V domains shown)
VH: QVQLVQSGAEVKKPGSSVKVSCKASGGTFSSYAISWVRQAPGQGLEWMGGIIPIFGTANYAQKFQGRVTITADKSTSTAYMELSSLRSEDTAVYYCARHGNYYYYYGMDVWGQGTTVTVSS
VL: SYVLTQPPAVSGTPGQRVTISCSGSDSNIGRRSVNWYQQFPGTAPKLLIYSNDQRPSVVPDRFSGSKSGTSASLAISGLQSEDEAEYYCAAWDDSLKGRVFGGGTQLTVL
notes: as for B2
Kd [1]: 21.5 µM | Kd (mini-HA #4900): 13 µM

B4: CR9114 gHC Fab VL A96V (Fab, V domains shown)
VH: QVQLVQSGAEVKKPGSSVKVSCKASGGTFSSYAISWVRQAPGQGLEWMGGIIPIFGTANYAQKFQGRVTITADKSTSTAYMELSSLRSEDTAVYYCARHGNYYYYYGMDVWGQGTTVTVSS
VL: SYVLTQPPAVSGTPGQRVTISCSGSDSNIGRRSVNWYQQFPGTAPKLLIYSNDQRPSVVPDRFSGSKSGTSASLAISGLQSEDEAEYYCAAWDDSLKGVVFGGGTQLTVL
notes: as for B2
Kd [1]: 15.8 µM | Kd (mini-HA #4900): 3.8 µM

B5: CR9114 gHC Fab VL W91Y (Fab, V domains shown)
VH: QVQLVQSGAEVKKPGSSVKVSCKASGGTFSSYAISWVRQAPGQGLEWMGGIIPIFGTANYAQKFQGRVTITADKSTSTAYMELSSLRSEDTAVYYCARHGNYYYYYGMDVWGQGTTVTVSS
VL: SYVLTQPPAVSGTPGQRVTISCSGSDSNIGRRSVNWYQQFPGTAPKLLIYSNDQRPSVVPDRFSGSKSGTSASLAISGLQSEDEAEYYCAAYDDSLKGAVFGGGTQLTVL
notes: as for B2
Kd [1]: 27.2 µM | Kd (mini-HA #4900): 45.7 µM

B6: CR9114 gHC Fab VL W91F (Fab, V domains shown)
VH: QVQLVQSGAEVKKPGSSVKVSCKASGGTFSSYAISWVRQAPGQGLEWMGGIIPIFGTANYAQKFQGRVTITADKSTSTAYMELSSLRSEDTAVYYCARHGNYYYYYGMDVWGQGTTVTVSS
VL: SYVLTQPPAVSGTPGQRVTISCSGSDSNIGRRSVNWYQQFPGTAPKLLIYSNDQRPSVVPDRFSGSKSGTSASLAISGLQSEDEAEYYCAAFDDSLKGAVFGGGTQLTVL
notes: as for B2
Kd [1]: 9.6 µM | Kd (mini-HA #4900): 9.7 µM

Reference: article PMC10872586 (Cell reports, 2023)
